Source: article PMC11665464

What was measured:
[1] = target: ALYREF-ΔNC, with the N- and C-terminal UAP56-binding motifs (UBMs) deleted (human) (UniProt Q86V81)
[2] = target: ALYREF-ΔNC, with the N- and C-terminal UAP56-binding motifs (UBMs) deleted (human) (UniProt Q86V81); assay: pull-down; Nickel-NTA affinity pull-down: 2 ug His6-tagged ALYREF or variant with 4 ug UAP56 in 30 ul K buffer (20 mM KH2PO4 pH 7.4, 10% glycerol, 0.5 mM EDTA, 0.01% Igepal, 1 mM DTT) with 200 mM KCl and 15 mM imidazole, 30 min at 4 °C; captured on Ni-NTA resin, eluted with 2% SDS; SDS-PAGE, Coomassie stain

Chain of UAP56 (Q13838 whole entry): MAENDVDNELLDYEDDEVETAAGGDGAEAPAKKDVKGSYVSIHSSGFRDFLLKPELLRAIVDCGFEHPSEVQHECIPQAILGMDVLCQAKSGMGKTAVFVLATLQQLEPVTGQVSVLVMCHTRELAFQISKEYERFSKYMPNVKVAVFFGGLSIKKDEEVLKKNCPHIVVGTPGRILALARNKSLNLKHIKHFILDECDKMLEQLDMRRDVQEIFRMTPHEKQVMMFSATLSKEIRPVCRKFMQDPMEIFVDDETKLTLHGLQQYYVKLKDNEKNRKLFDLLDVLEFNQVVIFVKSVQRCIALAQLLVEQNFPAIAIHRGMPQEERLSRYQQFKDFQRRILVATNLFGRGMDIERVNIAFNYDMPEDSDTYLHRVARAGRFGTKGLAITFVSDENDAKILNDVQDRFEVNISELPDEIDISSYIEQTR

time course (5, 10, 15 min) of R-loop dissociation by 60 nM UAP56 with 6 nM ALYREF-ΔNC; fold increase at 5 min [1]: 12 fold
percent of the ability to interact with UAP56 lost, against WT ALYREF [2]: 80%
Substance: UAP56 (from UniProt Q13838 1-428) (enzyme)
